# T1: human TIGIT stably expressed on cells (Jurkat; 293T) (human, UniProt Q495A1 22-244)
# T1 construct: the expression vector's insert is not described further; also called h-TIGIT; human TIGIT transfected Jurkat cells
# T1 sequence: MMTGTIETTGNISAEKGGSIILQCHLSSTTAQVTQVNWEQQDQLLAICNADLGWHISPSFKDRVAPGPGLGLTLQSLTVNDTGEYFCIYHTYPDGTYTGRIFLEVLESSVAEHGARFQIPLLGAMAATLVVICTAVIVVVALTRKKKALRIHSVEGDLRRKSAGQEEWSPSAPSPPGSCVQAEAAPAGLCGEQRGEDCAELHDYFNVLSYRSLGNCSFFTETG
# T2: recombinant human TIGIT extra cellular domain (ECD) protein (human, UniProt Q495A1 22-138)
# T2 construct: Purchased protein; it begins with the signal peptide; also called h-TIGIT ECD; human TIGIT ECD
# T2 sequence: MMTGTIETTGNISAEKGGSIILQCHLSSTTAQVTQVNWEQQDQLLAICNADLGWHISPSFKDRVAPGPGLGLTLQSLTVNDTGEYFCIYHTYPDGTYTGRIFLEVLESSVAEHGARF
# T3: recombinant protein of his-tagged human TIGIT ECD (human, UniProt Q495A1 22-138)
# T3 construct: Used in Octet assays; also called h-TIGIT ECD (his-tagged); not shown: his tag
# T3 sequence: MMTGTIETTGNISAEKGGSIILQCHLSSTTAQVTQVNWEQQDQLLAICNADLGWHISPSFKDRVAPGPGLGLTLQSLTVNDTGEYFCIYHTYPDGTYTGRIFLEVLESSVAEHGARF
# T4: recombinant ECD of human FcγRIIB (human, UniProt P31994 43-217)
# T4 construct: extracellular domain
# T4 sequence (looked up): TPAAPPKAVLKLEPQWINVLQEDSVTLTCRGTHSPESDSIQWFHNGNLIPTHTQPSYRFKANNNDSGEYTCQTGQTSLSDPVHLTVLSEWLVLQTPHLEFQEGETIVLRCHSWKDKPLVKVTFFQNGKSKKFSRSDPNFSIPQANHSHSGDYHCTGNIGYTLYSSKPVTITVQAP
# T5: recombinant ECD of mouse FcγRIV (mouse, UniProt A0A0B4J1G0 21-203)
# T5 sequence: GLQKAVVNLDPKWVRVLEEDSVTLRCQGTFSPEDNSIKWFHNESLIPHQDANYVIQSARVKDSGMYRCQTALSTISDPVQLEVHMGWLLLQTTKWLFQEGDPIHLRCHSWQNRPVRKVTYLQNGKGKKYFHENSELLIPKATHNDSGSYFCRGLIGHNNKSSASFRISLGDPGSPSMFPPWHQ
# Tests used:
# [1] = target: T1, human TIGIT stably expressed on cells …; assay: flow cytometry, whole cell binding on Jurkat cells stably expressing human TIGIT; Alexa Fluor 488 anti-human IgG Fc secondary
# Source text: FIGS. 1A-1C depict whole cell binding of representative VHH bivalent antibodies to human TIGIT determined by flowcytometry assays. […] Y axis represents Mean Fluorescence Intensity of AlexaFlour 488. X axis represents antibody concentrations in nanomolar. […] FIG. 1C is a schematic of the structure of a TIGIT VHH bivalent antibody.
# Jurkat cells stably expressing human TIGIT and NFAT reporter gene were established. Specifically, Jurkat cells were transfected with human TIGIT expression vector by electroporation, and cells stably expressing human TIGIT were selected by 1 μg/ml puromycin during cell culture. Representative antibody clones were incubated at different concentrations with h-TIGIT stably expressing Jurkat cells (0.2×10⁶/ml) in 100 μl/well in 96-well plate in FACS buffer (PBS with 1.5% FBS) for 30 min. After washing, Alexaflour 488 conjugated anti-human IgG Fc secondary antibody (Alexa Fluor® 488 AffiniPure Goat Anti-Human IgG, Fcγ fragment specific, Jackson labs, 1:500 dilution) was added and incubated for 30 min. After washing, mean fluorescence intensity was measured using CytoFlex (Beckman Coulter) by gating live cell population. Binding affinity was calculated using GraphPad Prism.
# [2] = target: T1, human TIGIT stably expressed on cells …; assay: flow cytometry, whole cell binding on h-TIGIT transfected Jurkat cells; anti-human IgG Fc AlexaFluor488 secondary
# Procedure: The binding affinities of the humanized bivalent antibodies to human TIGIT were determined by whole cell binding to h-TIGIT stably expressed on Jurkat cells. Briefly, antibodies were incubated with h-TIGIT transfected Jurkat cells (0.2×10⁶/well in 100 μl) for 30 min in FACS buffer. The cells were washed once, then incubated with anti-human IgG Fc AlexaFluor488 (1:500).
# [3] = target: T1, human TIGIT stably expressed on cells …; assay: cell-based or functional assay
# [4] = target: T2, recombinant human TIGIT extra cellular …; assay: ELISA on h-TIGIT ECD; VHH samples heated at 25 to 70 °C for 60 min (thermostability); concentration not given
# Procedure: (§1) FIGS. 6A and 6B depict thermostability tested for representative clones. The VHH antibody samples were heated from 25 to 70° C. for 60 min. Binding of heated samples to human TIGIT was examined using ELISA or whole cell binding. […] Y axis represents OD450 obtained from the ELISA assay. X axis represents temperature for the treatment. […] Y axis represents percentage of binding to h-TIGIT. X axis represents temperature for the treatment.
# [5] = target: T1, human TIGIT stably expressed on cells …; assay: flow cytometry on Jurkat cells stably expressing h-TIGIT; VHH samples heated at 25 to 70 °C for 60 min (thermostability); concentration not given
# Procedure: as §1
# [6] = target: T1, human TIGIT stably expressed on cells …; assay: whole cell binding
# [7] = target: T3, recombinant protein of his-tagged human …; assay: Octet biolayer interferometry; BsAb loaded on the sensor, his-tagged h-TIGIT ECD at different concentrations (not given), then h-PDL1 ECD
# Procedure: The sensors were loaded with BsAbs and then injected with different concentrations of recombinant protein of h-TIGIT ECD (his-tagged). After association of BsAbs with h-TIGIT, the sensors were injected again with different concentrations of recombinant protein of h-PDL1 ECD (his-tagged). […] Y axis represents association/disassociation and Rmax, X axis represents time in second.
# [8] = target: T1, human TIGIT stably expressed on cells …; assay: flow cytometry on h-TIGIT stably transfected Jurkat cells; anti-h-IgG Fc AlexaFluor488 secondary
# [9] = target: T4, recombinant ECD of human FcγRIIB; assay: Octet (ForteBio) biolayer interferometry; sensor loaded with recombinant ECD of human FcγRIIB; antibody at 5 concentrations (not given)
# Source text: (§2) Y axis represents association, dissociation & Rmax. X axis represents time in second.
# [10] = target: T5, recombinant ECD of mouse FcγRIV; assay: Octet (ForteBio) biolayer interferometry; sensor loaded with recombinant ECD of mouse FcγRIV; antibody at 5 concentrations (not given)
# Source text: as §2
# [11] = target: T1, human TIGIT stably expressed on cells …; assay: cell-based or functional assay; remark: listed apart in the source
# [12] = target: human FcγRIIIA on NFAT reporter Jurkat cells (human, UniProt P08637 17-254); assay: cell-based or functional assay
# human FcγRIIIA on NFAT reporter Jurkat cells, sequence (P08637 17-254): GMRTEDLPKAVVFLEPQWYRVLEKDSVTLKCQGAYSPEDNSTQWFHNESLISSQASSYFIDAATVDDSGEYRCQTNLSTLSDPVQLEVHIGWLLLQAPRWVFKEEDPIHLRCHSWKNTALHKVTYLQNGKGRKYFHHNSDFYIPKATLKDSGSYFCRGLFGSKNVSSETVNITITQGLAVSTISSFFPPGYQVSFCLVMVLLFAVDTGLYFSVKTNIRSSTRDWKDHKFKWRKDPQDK
binder,measurement,setting,value
"1G1-chimeric (llama VHH of 1G1 with human IgG1 CH2 and CH3 domains), bivalent (Fc fusion, also called 1G1 chimeric clone; not shown: human IgG1 CH2 and CH3 domains) QVQLVESGGGLVQAGDSLRLSCVASGPSFSSYPMGWFRQGPGKERESVAAISSDGRFTYYAASVKGRFTISKDNAKSAAFLQMNSLKPEDTAVYYCAARDSGSGYYSRAQWYDYWGQGTLVTVSS",EC50 (read off the curve),[1],~100 pM
same,EC50 (read off the curve),[2],~80 pM
same,"EC50 (read off the curve); NFAT luciferase reporter (RLU), h-TIGIT/NFAT Jurkat cells with PVR Raji cells and SEE",[3],~1000 pM
"1A8 VHH (VHH, VHH in bacterial supernatant) VHH: QVQLVESGGGVVQPGRSLRLSCAASGPSFSSYPMGWFRQAPGKERESVAAISSRGRFTYYADSVKGRFTISRDNSKNTLYLQMNSLRAEDTAVYYCAARDSGSGYYSRAQWYDYWGQGTLVTVSS",binding result,[4],binds
same,binding result,[5],binds
2A3 ML (2A3 with methionine to leucine in CDR2) (VHH) VHH: QVQLVESGGGVVQPGRSLRLSCAASGGSFSSYPMGWFRQAPGKERESVAAISSDLRFTYYADSVKGRFTISRDNSKNTLYLQMNSLRAEDTAVYYCAARDSGVGYYSRAQWYDYWGQGTLVTVSS,binding result,[6],binds
"7F6 VHH (VHH, VHH in bacterial supernatant) VHH: QVQLVESGGGVVQPGRSLRLSCAASGPMFSSYPMGWFRQAPGKERESVAAISSDPRFTYYADSVKGRFTISRDNSKNTLYLQMNSLRAEDTAVYYCAARDSGSGYYSRAQWYDYWGQGTLVTVSS",binding result,[4],binds
same,binding result,[5],binds
"6F12 VHH (VHH, VHH in bacterial supernatant) VHH: QVQLVESGGGVVQPGRSLRLSCAASGPSFTSYPMGWFRQAPGKERESVAAISSDGRFKYYADSVKGRFTISRDNSKNTLYLQMNSLRAEDTAVYYCAAEDSGSGYYSRAQWYDYWGQGTLVTVSS",binding result,[4],binds
same,binding result,[5],binds
2A3 MI (2A3 with methionine to isoleucine in CDR2) (VHH) VHH: QVQLVESGGGVVQPGRSLRLSCAASGGSFSSYPMGWFRQAPGKERESVAAISSDIRFTYYADSVKGRFTISRDNSKNTLYLQMNSLRAEDTAVYYCAARDSGVGYYSRAQWYDYWGQGTLVTVSS,binding result,[6],binds
2A3 ML_DE (2A3 with M to L in CDR2 and D to E in CDR3) (VHH) VHH: QVQLVESGGGVVQPGRSLRLSCAASGGSFSSYPMGWFRQAPGKERESVAAISSDLRFTYYADSVKGRFTISRDNSKNTLYLQMNSLRAEDTAVYYCAARESGVGYYSRAQWYDYWGQGTLVTVSS,binding result,[6],binds
"1C12-chimeric (llama VHH of 1C12 with human IgG1 CH2 and CH3 domains), bivalent (Fc fusion, also called 1C12 chimeric parental clone; not shown: human IgG1 CH2 and CH3 domains) QVQLVESGGGLVQTGDSLRLSCAASSRIFSRYGMGWFRQAPGKEREFVAAISWNGASTTYTDSVKGRFTISRDSAENTTYLQINSLRPEDTAVYYCAADPWGAVKLGTAEYEYWGQGTQVTVSS",EC50 (read off the curve),[1],~40 pM
same,EC50 (read off the curve),[2],~30 pM
same,"EC50 (read off the curve); NFAT luciferase reporter (RLU), h-TIGIT/NFAT Jurkat cells with PVR Raji cells and SEE",[3],~800 pM
"anti-TIGIT x anti-PDL1 bispecific antibody LCN (VHH 2A3 fused to the N-terminal of the anti-PDL1 light chain) (bispecific antibody, human IgG1, lambda, also called aTIGITx aPDL1-LCN) heavy: not shown light: QVQLVESGGGVVQPGRSLRLSCAASGGSFSSYPMGWFRQAPGKERESVAAISSDMRFTYYADSVKGRFTISRDNSKNTLYLQMNSLRAEDTAVYYCAARDSGVGYYSRAQWYDYWGQGTLVTVSSGSGGSGGSGGSGQSVVTQPPPVSGAPGQRVTISCTGSSSNVGAGYDVHWYQQLPGTAPKLLIYGNSQRSSGVPDRFSGSKSGTSASLAITGLQAEDEADYYCQTYDSSGSARVVFGGGTKLTVLGQPKAAPSVTLFPPSSEELQANKATLVCLISDFYPGAVTVAWKADSSPVKAGVETTTPSKQSNNKYAASSYLSLTPEQWKSHKSYSCQVTHEGSTVEKTVAPTECS",binding result,[7],binds
same,binding result,[8],binds
"2A3-LT-Fc-DLE (Fc mutations S239D, A330L and I332E) (Fc fusion, also called DLE mutant) QVQLVESGGGVVQPGRSLRLSCAASGGSFSSYPMGWFRQAPGKERESVAAISSDLRFTYYADSVKGRFTISRDNSKNTLYLQMNSLRAEDTAVYYCAARTSGVGYYSRAQWYDYWGQGTLVTVSSEPKSCDKTHTCPPCPAPELLGGPDVFLFPPKPKDTLMISRTPEVTCVVVDVSHEDPEVKFNWYVDGVEVHNAKTKPREEQYNSTYRVVSVLTVLHQDWLNGKEYKCKVSNKALPLPEEKTISKAKGQPREPQVYTLPPSREEMTKNQVSLTCLVKGFYPSDIAVEWESNGQPENNYKTTPPVLDSDGSFFLYSKLTVDKSRWQQGNVFSCSVMHEALHNHYTQKSLSLSPGK",binding result,[9],binds
same,binding result,[10],binds
same,"EC50 (nM), TIGIT blockade NFAT luciferase reporter assay, Average",[11],0.97 nM
same,"EC50 (nM), TIGIT blockade NFAT luciferase reporter assay, Exp 1",[11],0.67 nM
same,"EC50 (nM), TIGIT blockade NFAT luciferase reporter assay, Exp 2",[11],0.92 nM
same,"EC50 (nM), TIGIT blockade NFAT luciferase reporter assay, Exp 3",[11],1.32 nM
same,"EC50 (nM), FcγRIIIA-mediated NFAT luciferase reporter activity, Average",[12],0.024 nM
same,"EC50 (nM), FcγRIIIA-mediated NFAT luciferase reporter activity, Exp 1",[12],0.027 nM
same,"EC50 (nM), FcγRIIIA-mediated NFAT luciferase reporter activity, Exp 2",[12],0.0295 nM
same,"EC50 (nM), FcγRIIIA-mediated NFAT luciferase reporter activity, Exp 3",[12],0.018 nM
same,"EC50 (nM), FcγRIIIA-mediated NFAT luciferase reporter activity, Exp 4",[12],0.02 nM
